Biological target: actin filaments in growth cones of cultured hippocampal neurons (mouse (endogenous in cultured hippocampal neurons))
Assay: FRET or BRET; acceptor photobleaching FRET in growth cones of fixed 2 DIV hippocampal neurons; donor GFP or GFP-tagged construct, acceptor TRITC-phalloidin on actin filaments

Substance: MAP6-E-GFP (rat MAP6-E fused to GFP) (from UniProt Q63560 1-614) (natural protein)
- FRET efficiency: 52%
